# Laboratory results published in the DeepSol protein solubility set.
# Test: soluble on expression in E. coli; label from the status in PepcDB or PDB records
row,Sequence,soluble on expression in E. coli
1,MAAQKKIPLRKCVVTGEMKPKREMVRIVRSKEGEVSIDPTGKKAGRGAYITLDPECILQAKKKNILARHLKADIDDAIYDELLALAEKEKQAGHEA,soluble
2,MAASWRLGCDPRLLRYLVGFPGRRSVGLVKGALGWSVSRGANWRWFHSTQWLRGDPIKILMPSLSPTMEEGNIVKWLKKEGEAVSAGDALCEIETDKAVVTLDASDDGILAKIVVEEGSKNIRLGSLIGLIVEEGEDWKHVEIPKDVGPPPPVSKPSEPRPSPEPQISIPVKKEHIPGTLRFRLSPAARNILEKHSLDASQGTATGPRGIFTKEDALKLVQLKQTGKITESRPTPAPTATPTAPSPLQATAGPSYPRPVIPPVSTPGQPNAVGTFTEIPASNIRRVIAKRLTESKSTVPHAYATADCDLGAVLKVRQDLVKDDIKVSVNDFIIKAAAVTLKQMPDVNVSWDGEGPKQLPFIDISVAVATDKGLLTPIIKDAAAKGIQEIADSVKALSKKARDGKLLPEEYQGGSFSISNLGMFGIDEFTAVINPPQACILAVGRFRPVLKLTEDEEGNAKLQQRQLITVTMSSDSRVVDDELATRFLKSFKANLENPIRLA,soluble
3,MAATARRGWGAAAVAAGLRRRFCHKLKNPYTIKKQPLHQFVQRPLFPLPAAFYHPVRYMFIQTQDTPNPNSLKFIPGKPVLETRTMDFPTPAAAFRSPLARQLFRIEGVKSVFFGPDFITVTKENEELDWNLLKPDIYATIMDFFASGLPLVTEETPSGEAGSEEDDEVVAMIKELLDTRIRPTVQEDGGDVIYKGFEDGIVQLKLQGSCTSCPSSIITLKNGIQNMLQFYIPEVEGVEQVMDDESDEKEANSP,soluble
4,MAATITDDIVATVLESIEEKSYEDEKEKAGMIKDEANQFFKDQVYDVAADLYSVAIEIHPTAVLYGNRAQAYLKKELYGSALEDADNAIAIDPSYVKGFYRRATANMALGRFKKALTDYQAVVKVCPNDKDARAKFDECSKIVRRQKFEAAISTDHDKKTVAETLDINAMAIEDSYDGPRLEDKITKEFVLQLIKTFKNQQKLHKKYAFKMLLEFYNYVKSLPTMVEITVPTGKKFTICGDVHGQFYDLCNIFEINGYPSETNPYLFNGDFVDRGSFSVETIFTMIGFKLLYPNHFFMSRGNHESDVMNKMYGFEGEVKAKYTQQMCDMFTETFCWLPLCHLINEKIFVCHGGLFKEDGVTLEDIRKTDRNRQPPDEGIMCDLLWEKNWKNLKILYPDGKINKNSNCQPKTCKNASDPQPINGRSPSKRGVGCQFGPDVTSKWCETNGIEYVVRSHEVKPEGYEMHHNGQCFTVFSAPNYCDQMNNKGAFITITGDNLTPRFTPFDAVPHPKLPPMAYANSLFGFN,not soluble
5,MACLTDLVNLNLSDTTEKIIAEYIWIGGSGMDLRSKARTLPGPVTDPSKLPKWNYDGSSTGQAPGEDSEVILYPQAIFKDPFRRGNNILVMCDCYTPAGEPIPTNKRYSAAKIFSSPEVAAEEPWYGIEQEYTLLQKDTNWPLGWPIGGFPGPQGPYYCGIGAEKSFGRDIVDAHYKACLYAGINISGINGEVMPGQWEFQVGPSVGISSGDQVWVARYILERITEIAGVVVTFDPKPIPGDWNGAGAHTNYSTESMRKEGGYEVIKAAIEKLKLRHKEHIAAYGEGNERRLTGRHETADINTFSWGVANRGASVRVGRETEQNGKGYFEDRRPASNMDPYVVTSMIAETTIVWKP,soluble
6,MADDFAYLNARVRVRRGTLLKESFFQEALDLSFADFLRLLSETVYGGELAGQGLPDVDRAVLRTQAKLVGDLPRLVTGEAREAVRLLLLRNDLHNLQALLRAKATGRPFEEVLLLPGTLREEVWRQAYEAQDPAGMAQVLAVPGHPLARALRAVLRETQDLARVEALLAKRFFEDVAKAAKGLDQPALRDYLALEVDAENLRTAFKLQGSGLAPDAFFLKGGRFVDRVRFARLMEGDYAVLDELSGTPFSGLSGVRDLKALERGLRCVLLKEAKKGVQDPLGVGLVLAYVKEREWEAVRLRLLARRAYFGLPRAQVEEEVVCP,soluble
7,MADEEDPCGGGKKNPRKRCQPDVDPEEDSEPDLDGPQPPFRGRSSTVTDAVRQTAMEFRKRARSDEFRPAQQPEQSVVAVKPPTTSAPVTPFPANLPVSEQLEDLSLLPGVRRVRPLPRSRYPVANDPFDKFSAYSGPGSSQQAVPRTISKISEESGSGSGSGSGNDSSGSSGPTRMSGQVPSTSGPPPPRPPPAGHQNPFLGNQPSTSNTSEPSTSTQGVSPSRTSKISKKKAHQAGLHSKGSSEDSTDSGESKPSSKQPPKKSPKSNKNDPNAPGPSRRRDDDDDGVQGGSSEGSSESL,soluble
8,MADETIAIVDADATAETRSLLSYLDGVRGEGILFGHQHTTSFGLTTGPTDGTTSDVKNVTGDFPAVFGWDTLIIEGNERPGLAENTRDENIALFADYIRKADAIGGVNTVSAHVENFVTGGSFYDTSGDTLRAVLPGGSHHAELVAYLDDIAELADASRRDDGTLIPIVFRPWHENAGSWFWWGAAYGSPGEYQELYRFTVEYLRDVKGVSNFLYAWGPGGGFGGNRDVYLRTYPGDAFVDVLGLDTYDSTGSDAFLAGLVADLRMIAEIADEKGKVSAFTEFGVSGGVGTNGSSPAQWFTKVLAAIKADPVASRNAYMETWRNADAGQHFVPVPGDALLEDFQAYAADPFTLFASEVTGAFDRTVAAAPAQPVVHIASPADGARVASAPTTVRVRVGGTDVQSVTVEVAQGGTVVDTLDLAYDGALWWTAPWSPTSAQLDNSTYTVTATATTAAGTLDVTNEVAAALEHHHHHH,soluble
9,MADETPKVKTEPAAEVKSPLDEVKEIRKEAELTQTGSDEKKTTDPEFITVQDPNGDEPIELPTVDGVVLMTTLQASFPGATGLKYKNPKTGANRAVQVDPSGLKLIAPADGWENKTFFVIVAPQSERVRALSSADATSAKRRKVGSSDDSDSDDGRDGRSGRKRAVERDSQPVDLIVLGVDFKTTDECFQKYFEDIGTVVFCEIKRKSDGNSKGFGFVRMSSVGEQNKVLAIPQHMIDGRRCDVKVPDGRDKQGRPSISRIFVGRLTDKVDEHQLRKVFGDEAKSYIETAVVTDVFIPKPFRGFAFVTLSSAEAAERIVSKGSLTVNGLSVGLSIAQPREENNQSVGPDYGLPAGYRNRRERDRPDRRPIQNEAPLPMPFVRPPQDYSYRQQNSPLERRYWAPGDSRGPGW,not soluble
10,MADFLTRFIREELSWRGYEKAIVAVSGGVDSATTLALAVRALGAERVHALFLPHRESSPTSREHAYLVAETFGVALEEVDITPMVEGYAALTPDLTPHRKGNVMARARMIVLFDKSEAYRALPLGTGNKTERLFGYFTWHGDDTPPVNPLGDLYKTQVWRLAEHLGVPEEVVRKPPTADLIPGQTDEADLGLRYLRADVILEHYLKGYSDQYILGLGFTEEELRRVKERVNRTHWKRALPTVALLSSTAIGEFYLRPLDYRP,soluble
11,MADIYPLGKTHTEELNEIIVESAKEIAEPDTTMIQKLIDEHNPEPLLKGVRYYMCENDIEKKRRTYYDAAGQQLVDDTKTNNRTSHAWHKLFVDQKTQYLVGEPVTFTSDNKTLLEYVNELADDDFDDILNETVKNMSNKGIEYWHPFVDEEGEFDYVIFPAEEMIVVYKDNTRRDILFALRYYSYKGIMGEETQKAELYTDTHVYYYEKIDGVYQMDYSYGENNPRPHMTKGGQAIGWGRVPIIPFKNNEEMVSDLKFYKDLIDNYDSITSSTMDSFSDFQQIVYVLKNYDGENPKEFTANLRYHSVIKVSGDGGVDTLRAEIPVDSAAKELERIQDELYKSAQAVDNSPETIGGGATGPALEKLYALLDLKANMAERKIRAGLRLFFWFFAEYLRNTGKGDFNPDKELTMTFTRTRIQNDSEIVQSLVQGVTGGIMSKETAVARNPFVQDPEEELARIEEEMNQYAEMQGNLLDDEGGDDDLEEDDPNAGAAESGGAGQVS,soluble
12,MADKSSRSLILYGDGLARFVDPSNTNIHSLASVATCGFLSLPNAPPETENERIVREFSHLLDASEAYSIASGLKPKGNGNDISTLAERFMGLKAALVTDSSTLTSFGKLIGLDVLQLSEICQESDSFPSDATSSKLLKLLGFEGGKCLDVNLYDLVFVHFGVDEYNNGNNMGILDSLIGSIMGMAQPGSEILSRLHLSVVLSYGSVTDKDVSVFPIKTPQEDINPAFIGLVPRQSYTMRGEKTRDDVRHYCPMLVAQWQHGVTRKDLVDTLSFEALKKLCGNLVIPADRFIHEVAFKLWKAPKYGA,soluble
13,MADNINESEIIERLNSAPSVRGFFIATVDVFNESIDGLIQRIFRKDNFAVQSVVGPLLQDSGPLGDLSVRLKLLFGLGVLPDDIYHDIEDIIKLKNHLNSDASDYEFTDPNILEPIKKLHLVKKMGMVQLEVNEPDDDIDLEFYQLQLQRQQQIIKSGLSLAIVEICNELGKDSPF,not soluble
14,MADPQGFIKYSRREPAHRPVPLRLMDHSEVYEKAPAGQIEEQAARCMDCGVPFCHEGCPLGNIIPEWNDLVRQGRWKEAYDRLHATNNFPEFTGRLCPAPCEGACVLGINDDSVTIKNVELEIVEKAFREGWVQPVIPSMSTGLSVAVVGSGPAGLAAAQQLTRAGHSVTVFERDDRLGGLMRYGVPEYKMENRWIDRRIEQMEAEGTTFQVGTSPRAAELALFDAILLATGTPVARELSVPGHDLNGIHAAMDYLTAQNRINEGDGEVSPINAKGKKVVIIGGGDTGTDCFGTALRQGAESVTQFDIRPRAPFQRADSTPWPMYPNLFRTATAHEEGEYIITGDESADEIAALGLAERAAGSTLGERKFAVNTVEFHGNNGHVTGLTGNQIRVVNGKREPIEGTEFPFEADLVLVALGFTGAEQGGLAHELGVGFDDRGRILRDSEYRSPTNSRVYIAGDNGRGQSLIVWAIAEGRACAAAIDADLMGETALPVAVAPQDVPLAVLEHHHHHH,not soluble
15,MADPTFAEHVATTNSRLASLRANLIDVSTFPEACSELTKWCQDQRAFTAHFEDNLMMALEAAMDYGTRENYDYMLTHGLVGACFTHRKHLSKPAATRIGRWYEQMRRLKKNGGKRKRAPPKPKDPALQASSQPTGTLPVLTSPSCPQNGQQLPTENNNFMFSPNSSDGLVLVIFSSSINFSLKIRVNAKKRKF,not soluble
16,MADPWQECMDYAVTLAGQAGEVVREALKNEMNIMVKSSPADLVTATDQKVEKMLITSIKEKYPSHSFIGEESVAAGEKSILTDNPTWIIDPIDGTTNFVHGFPFVAVSIGFVVNKKMEFGIVYSCLEDKMYTGRKGKGAFCNGQKLQVSHQEDITKSLLVTELGSSRTPETVRIILSNIERLLCLPIHGIRGVGTAALNMCLVAAGAADAYYEMGIHCWDVAGAGIIVTEAGGVLLDVTGGPFDLMSRRVIASSNKTLAERIAKEIQIIPLQRDDED,soluble
17,MADQKEASEAAKNREIKISSSDDEIFLVPRNVIRLSNTLNTLLVDLGLDDDEGTNAEPIPVQNVTASILKKVINWCTKHQSDPIPTEDSEKKTDGSIQDWDKKFLDIDQGTLFELILAANYLDIKGLLDVACQSVANMIKGKSPDEIRRAFNIKDDFTAEEREQIRKENAWCDD,soluble
18,MADVALRITETVARLQKELKCGICCSTYKDPILSTCFHIFCRSCINACFERKRKVQCPICRSVLDKRSCRDTYQITMAVQNYLKLSEAFKKDIENMNTFKSLPPEKMFMESQMPLDITIIPENDGKRCAPDFAIPFLPVRRKRPSRPQPPSAFAEEPAEPVEPPEPATKQPVELQSRVFPLEKLKKDVETSTETYKISREELKNVDIEEYINTLRENSTEIDEIDALFQLMPTMRQFLRNNINQLMEKFHVAPPKKSEKPANRRVSFASSQDLENIKIMTASESLETPPEPIQKLAQKPEVFKSTQNLIDLNLNTAVKKPVVVASDDDEVVEDSEGELQIDEDDLANVTCATSVRNIGKSLCAEYIREGRSISQKSTAYLYAIARKCVIVGRQWLVDCITTGLLLSEADYTITSCSSTIPVKIPPSIGSEMGWLRSRNDEHGKLFAGRRFMILRKFTMNPYFDYKQLIELVQQCGGEILSCYENLSPEKLYIIFSKHSKAIEESKNIENLYKCDVVTMEWVLDSISEYLILPTQPYKAVDSIGCLQD,not soluble
